# Reference: PMC6748439, “Structural Insights into Curli CsgA Cross-β Fibril Architecture Inspire Repurposing of Anti-amyloid Compounds as Anti-biofilm Agents” (PLoS Pathogens, 2019)
# B1: CsgA segment 129TASNSS134 (R4-R5 loop) (peptide)
# peptide: TASNSS
# notes: Unmodified termini for crystallography; source: synthetic peptide, bought: GL Biochem (Shanghai) Ltd
# B2: CsgA segment 137VTQVGF142 (R5 repeat) (peptide)
# peptide: VTQVGF
# notes: Unmodified termini for crystallography; in the seeding assay Ac-VTQVGF-NH2, in the ThT assay with D-peptides capped at the C-terminus; source: synthetic peptide, bought: GL Biochem (Shanghai) Ltd
# B3: CsgA segment 45LNIYQY50 (R1 repeat) (peptide)
# peptide: LNIYQY
# notes: CsgA residues 45-50 (R1 repeat), numbered on UniProt P28307; Unmodified termini for crystallography; in the seeding assay Ac-LNIYQY-NH2, in the ThT assay with D-peptides capped at the C-terminus; also called R1 segment 45LNIYQY50; source: synthetic peptide, bought: GL Biochem (Shanghai) Ltd
# B4: CsgA segment 47IYQYGG52 (R1 repeat) (peptide)
# peptide: IYQYGG
# notes: CsgA residues 47-52 (R1 repeat), numbered on UniProt P28307; Unmodified termini for crystallography; in the seeding assay Ac-IYQYGG-NH2; also called R1 segment 47IYQYGG52; source: synthetic peptide, bought: GL Biochem (Shanghai) Ltd
# Legend:
# [1] = biological target: CsgA, the major curli subunit (recombinant, C-terminal His6-tag) (Escherichia coli) (UniProt P28307); assay: SEC-MALS; freshly purified CsgA concentrated to 1.8 mg/ml, Superdex 75 10/300, miniDAWN TREOS; hexamer beside a majority of monomer
# [2] = biological target: the molecule itself; assay: crystal structure; peptides with free (unmodified) termini, hanging drop, 293 K; micro-crystals, data collected at 100 K; LNIYQY and TASNSS crystals grown in a mixture with TAIVVQ of CsgB, which was not present in the crystals
Molecule,stoichiometry N [1],binding result [2]
"CsgA, the major curli subunit (recombinant, C-terminal His6-tag) (from UniProt P28307 21-151) (natural protein)",6,–
B1,–,binds
B2,–,binds
B3,–,binds
B4,–,binds
